How the values were obtained:
Assay type in all cases: biochemical
[1] = Sialyltransferase activity in E. coli homogenate (crude enzyme solution), transfer of 14C-NeuAc from CMP-NeuAc to lactose; conditions: lactose acceptor; for Radioactivity (cpm) Average: average of duplicate; for Sialyltransferase activity in crude enzyme solution (in words): CMP-14C-NeuAc donor
Description: Sialyltransferase activity was measured as described in J. Biochem., 120, pp. 104-110 (1996) (which is hereby incorporated by reference in its entirety). More specifically, the enzymatic reaction was accomplished by using CMP-NeuAc (70 nmol, containing 25000 cpm CMP-NeuAc in which NeuAc was labeled with ^14C, 356 cpm/nmol; NeuAc represents N-acetylneuraminic acid) as a glycosyl donor substrate, lactose (1.25 μmol) as a glycosyl acceptor substrate, NaCl added to give a concentration of 0.5 M, and the enzyme-containing reaction solution (30 μl) prepared as described above. The enzymatic reaction was carried out at 25° C. for 10 to 30 minutes. After completion of the reaction, 1.97 ml of 5 mM phosphate buffer (pH 6.8) was added to the reaction solution, which was then applied to a Dowex 1×8 (PO4^3− form, 0.2×2 cm, BIO-RAD) column. The radioactivity was measured for the reaction product, i.e., sialyllactose contained in the eluate (0 to 2 ml) from this column to calculate the enzyme activity.
An induction experiment of protein expression was performed on the two 467-N0C0 clones and the three 467-N2C0 clones obtained in (4) above. A single colony of E. coli TB1 having the expression vector pTrc99A carrying each clone was inoculated into LB medium (5 ml) containing an antibiotic, ampicillin (final concentration 100 μg/mL), and pre-cultured at 30° C. to about A600=0.5, followed by addition of IPTG (isopropyl-β-D(−)-thiogalactopyranoside, Wako Pure Chemical Industries, Ltd. Japan) at a final concentration of 1 mM. After culturing with shaking at 30° C. for an additional 4 hours, the cells in 2 ml culture solution were collected by centrifugation. These cells were suspended in 200 μl of 20 mM BisTris buffer (pH 7.0) containing 0.336% Triton X-100 and 0.5 M sodium chloride, and ultrasonically homogenized under ice cooling. The resulting homogenate was defined as a crude enzyme solution and provided for activity measurement. The reaction was carried out in duplicate, and the reaction composition was the same as shown in Example 1, except that the reaction time was set to 15 hours.
In the same manner as shown in Example 5(5), an induction experiment of protein expression was performed on 2 clones, i.e., the first clone of ISH224-N0C0 and the first clone of ISH224-N1C0 to measure their enzyme activity.
In the same manner as shown in Example 5(5), an induction experiment of protein expression was performed on 3 clones, i.e., the first clone of FAJ-N0C0 as well as the first and second clones of FAJ-N1C0 to measure their enzyme activity.

[2] = Confirmation of α2,3 sialyltransferase activity of E. coli-expressed enzyme with pyridylaminated lactose, HPLC; conditions: pyridylaminated lactose 2.0 μM, CMP-sialic acid 5.7 μM, pH 6.0, 25° C., 6 hours
Description: Using the enzyme obtained in Example 2, the enzymatic reaction was carried out using a pyridylaminated sugar chain as a glycosyl acceptor substrate. The pyridylaminated sugar chain used for analysis was pyridylaminated lactose (Galβ1-4Glc-PA, Takara Bio Inc., Japan). The glycosyl acceptor substrate, CMP-NeuAc and the enzyme were dissolved at 2.0 μM, 5.7 μM and 20 mU/ml, respectively, in 25 μl of 20 mM cacodylate buffer (pH 6.0), and then reacted at 25° C. for 3 hours. After the reaction, the reaction solution was treated at 100° C. for 2 minutes to inactivate the enzyme, followed by HPLC to analyze the reaction product.
The HPLC system used was Shimadzu LC10A (Shimadzu Corporation, Japan) and the analytical column used was Takara PALPAK Type R (Takara Bio Inc., Japan). The column which had been equilibrated with 100 mM acetate-triethylamine (pH 5.0) containing 0.15% N-butanol was injected with the reaction solution diluted with Eluent A (100 mM acetate-triethylamine, pH 5.0). For elution of the pyridylaminated sugar chain, Eluent A (100 mM acetate-triethylamine, pH 5.0) and Eluent B (100 mM acetate-triethylamine containing 0.5% n-butanol, pH 5.0) were used to successively elute the pyridylaminated sugar chain with a linear gradient of 30% to 100% Eluent B (0 to 35 minutes) and then 100% Eluent B (35 to 50 minutes). The analysis was performed under the following conditions: flow rate: 1 ml/min, column temperature: 40° C., detection: fluorescence (Ex: 320 nm, Em: 400 nm).
As in the case of Example 3, pyridylaminated lactose (Galβ1-4Glc-PA, PA-Sugar Chain 026, Takara Bio Inc., Japan) was used as a glycosyl acceptor to carry out the enzymatic reaction. After the reaction, the reaction solution was heated at 95° C. for 5 minutes to inactivate the enzyme, followed by HPLC analysis. It should be noted that the enzymatic reaction was accomplished at 25° C. for 6 hours using pyridylaminated lactose and CMP-sialic acid dissolved at 2.0 μM and 5.7 μM, respectively, in 25 μl of 20 mM cacodylate buffer (pH 6.0) (Reaction 1). On the other hand, a control experiment (Reaction 2) was carried out using a reaction solution free from CMP-sialic acid. Further, to clarify the retention time of standards, the crude enzyme solution was inactivated by thermal treatment (95° C., 5 minutes) and tested in the presence of pyridylaminated lactose and pyridylaminated α2,3-sialyllactose (pyridylaminated 3′-sialyllactose) (Neu5Acα2-3Galβ1-4Glc-PA, PA-Sugar Chain 029, Takara Bio Inc., Japan).

[3] = Optimum temperature for enzyme activity; conditions: 5° C. to 45° C. at 5° C. intervals, at the optimum pH of each enzyme
Description: Purified enzymes were prepared to examine the optimum pH and temperature for β-galactoside-α2,3-sialyltransferase produced by the strain JT-ISH-467 as well as recombinant β-galactoside-α2,3-sialyltransferases produced by the third clone of ISH467-N2C0, the first clone of ISH224-N1C0 and the first clone of FAJ-N1C0.
The enzyme activity was measured at an interval of 5° C. starting from 5° C. up to 45° C. and at pH 5.0 for β-galactoside-α2,3-sialyltransferase produced by the strain JT-ISH-467, in cacodylate buffer (pH 5.5) for the third clone of ISH467-N2C0, in cacodylate buffer (pH 5.0) for the first clone of ISH224-N1C0, and in cacodylate buffer (pH 5.5) for the first clone of FAJ-N1C0.
As a result, as shown, in FIGS. 4-1 and 4-2, the enzyme activity was maximum at 25° C. for β-galactoside-α2,3-sialyltransferase produced by the strain JT-ISH-467, at 25° C. for the third clone of ISH467-N2C0, at 30° C. for the first clone of ISH224-N1C0, and at 20° C. for the first clone of FAJ-N1C0. […] It should be noted that enzyme activity at each temperature was expressed as relative activity, assuming at that the enzyme activity at a temperature where it reached a maximum was set to 100.

[4] = JT-ISH-467 gene clones, 25° C., reaction time 15 hours
[5] = JT-ISH-224 gene clones, as Example 5(5)
[6] = JT-FAJ-16 gene clones, as Example 5(5)

Row | Molecule | Radioactivity (cpm) Round 1 [1, 4] [cpm] | Radioactivity (cpm) Round 2 [1, 4] [cpm] | Radioactivity (cpm) Average [1, 4] [cpm] | Sialyltransferase activity in crude enzyme solution (in words) [1] | α2,3 sialyltransferase activity (formation of pyridylaminated α2,3-sialyllactose) [2] | Temperature at which the enzyme activity was maximum (optimum temperature) [3] [°C] | Radioactivity (cpm) Round 1 [1, 5] [cpm] | Radioactivity (cpm) Round 2 [1, 5] [cpm] | Radioactivity (cpm) Average [1, 5] [cpm] | Radioactivity (cpm) Round 1 [1, 6] [cpm] | Radioactivity (cpm) Round 2 [1, 6] [cpm] | Radioactivity (cpm) Average [1, 6] [cpm]
1 | ISH467-N2C0 third clone: JT-ISH-467 sialyltransferase lacking signal peptide region, nucleotides 73 to 1230 of SEQ ID NO: 1, no mutation (protein, listed as Photobacterium phosphoreum, CDS (1)..(1230) /gene=“467-23ST” /product=“Beta-galactoside- alpha 2,3-sialyltransferase”) MFVFCKKIFFLIFISLMILGGCNSDSKHNNSDGNITKNKTIEVYVDRATLPTIQQMTQIINENSNNKKLISWSRYPINDETLLESINGSFFKNRPELIKSLDSMILTNEIKKVIINGNTLWAVDVVNIIKSIEALGKKTEIELNFYDDGSAEYVRLYDFSRLPESEQEYKISLSKDNIQSSINGTQPFDNSIENIYGFSQLYPTTYHMLRADIFETNLPLTSLKRVISNNIKQMKWDYFTTFNSQQKNKFYNFTGFNPEKIKEQYKASPHENFIFIGTNSGTATAEQQIDILTEAKKPDSPIITNSIQGLDLFFKGHPSATYNQQIIDAHNMIEIYNKIPFEALIMTDALPDAVGGMGSSVFFSLPNTVENKFIFYKSDTDIENNALIQVMIELNIVNRNDVKLISDLQ | 8547 | 8481 | 8514 | sialyltransferase activity was also observed | found to have α2,3 sialyltransferase activity | 25 | – | – | – | – | – | –
2 | ISH224-N1C0 first clone: JT-ISH-224 sialyltransferase lacking signal peptide region, nucleotides 73 to 1230 of SEQ ID NO: 28 (protein, listed as Photobacterium sp., CDS (1)..(1230) /gene=“224-23ST” /product=“Beta-galactoside-alpha-2,3-sialyltransferase”) MLVFCKKMFFSVFISLMILGGCNSDSNHNNSDGNITKNKTIEVYVDRATLPTIQQMTQIINENSNNKKLISWSRYPINDEELLESINGSFFKNNSELIKSLDSMILTNDIKKVIINGNTLWAADVVNIIKSIEAFGKKTEIELNFYDDGSAEYVRLYDFSKLPESEQEYKISLSKDNILSSINGTQPFENVVENIYGFSQLYPTTYHMLRADIFETNLPLRSLKGVLSNNIKQMKWDYFKTFNSQQKDKFYNFTGFNPDEIMEQYKASPNKNFIFVGTNSGTATAEQQIDILTEAKNPNSPIITKSIQGFDLFFKGHPSATYNKQIIDAHNMIEIYNKIPFEALIMTDALPDAVGGMGSSVFFSLPNTVENKFIFYKSDTDIENNALIQVMIELNIVNRNDVKLISDLQ | – | – | – | sialyltransferase activity was observed | a peak of pyridylaminated α2,3-sialyllactose (pyridylaminated 3′-sialyllactose) was detected | 30 | 9330 | 9415 | 9672.5 | – | – | –
3 | FAJ-N1C0 first clone: JT-FAJ-16 sialyltransferase lacking signal peptide region, nucleotides 67 to 1209 of SEQ ID NO: 30 (protein, listed as Vibrio sp., CDS (1)..(1209) /gene=“FAJ16-23ST” /product=“Beta-galactoside- alpha 2,3-sialyltransferase”) MKNIITKRMLIILSSLFTIIGCNNDNSTTTNNNAIEIYVDRATLPTIQQMTKIVSQKTSNKKLISWSRYPITDKSLLKKINAEFFKEQFELTESLKNIILSENIDNLIIHGNTLWSIDVVDIIKEVNLLGKNIPIELHFYDDGSAEYVRIYEFSKLPESEQKYKTSLSKNNIKFSIDGTDSFKNTIENIYGFSQLYPTTYHMLRADIFDTTLKINPLRELLSNNIKQMKWDYFKDFNYKQKDIFYSLTNFNPKEIQEDFNKNSNKNFIFIGSNSATATAEEQINIISEAKKENSSIITNSISDYDLFFKGHPSATFNEQIINAHDMIEINNKIPFEALIMTGILPDAVGGMGSSVFFSIPKEVKNKFVFYKSGTDIENNSLIQVMLKLNLINRDNIKLISDI | – | – | – | sialyltransferase activity was observed | a peak of pyridylaminated α2,3-sialyllactose (pyridylaminated 3′-sialyllactose) was detected | 20 | – | – | – | 5664 | 6724 | 6194

From patent US8030043B2, “β-galactoside-α2,3-sialyltransferase, a gene encoding thereof, and a method for producing thereof” (Japan Tobacco Inc., priority 2005, dated 2011)
